Measured values from PMC314469, “Protein Interaction Networks by Proteome Peptide Scanning” (PLoS Biology, 2004).

Target: T1, Boi1 SH3 (BOI1_YEAST), P38041
T1 chain: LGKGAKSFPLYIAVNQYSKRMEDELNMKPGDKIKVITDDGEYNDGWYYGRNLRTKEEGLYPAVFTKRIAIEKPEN
Test: SPOT array

Binder | normalised SPOT signal, Boehringer light units (BLU); mean over the file's lines of this peptide
TMKNKPKPTPPSPP [YPR171W 298-311] | 292
TLKKKKTPKKPIAA [YKR084C 77-90] | 1510
TNSVKATPVPPTLA [YLR337C 365-378] | 53.6
TKAKKEKPKPPKPI [YMR044W 280-293] | 546
TNGPRYSPQNPRPF [YMR124W 350-363] | 30.1
TQMKRLKPVSPGLR [YEL050C 91-104] | 2890
TKTDKSYPMSPVDA [YOR208W 444-457] | 52.5
TLNDRQIPLSPDQM [YAL026C 387-400] | 60.6
TKRQRGEPSEPQQD [YGR241C 267-280] | 2030
TLDEKESPSVPPTV [YKL148C 624-637] | 58.2
TKFTKPKPKQPVLP [YLR439W 17-30] | 295
TLDEKNLPRLPTPF [YKR055W 36-49] | 0
TPQSRFPPYSPLLP [YDR103W 267-280] | 57.1
TKKRKLGPKAPNPL [YOR004W 192-205] | 495

Target: T2, Boi2 SH3 (BOI2_YEAST), P39969
T2 chain: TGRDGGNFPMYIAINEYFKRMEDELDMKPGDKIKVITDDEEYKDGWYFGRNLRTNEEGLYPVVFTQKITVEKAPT
Test: SPOT array

Binder | normalised SPOT signal, Boehringer light units (BLU); mean over the file's lines of this peptide
TMKNKPKPTPPSPP [YPR171W 298-311] | 52.3
TLKKKKTPKKPIAA [YKR084C 77-90] | 13
TNSVKATPVPPTLA [YLR337C 365-378] | 2.7
TKAKKEKPKPPKPI [YMR044W 280-293] | 11.1
TNGPRYSPQNPRPF [YMR124W 350-363] | 15.5
TQMKRLKPVSPGLR [YEL050C 91-104] | 1140
TKTDKSYPMSPVDA [YOR208W 444-457] | 19.3
TLNDRQIPLSPDQM [YAL026C 387-400] | 27.5
TKRQRGEPSEPQQD [YGR241C 267-280] | 21.1
TLDEKESPSVPPTV [YKL148C 624-637] | 15.4
TKFTKPKPKQPVLP [YLR439W 17-30] | 6.1
TLDEKNLPRLPTPF [YKR055W 36-49] | 0
TPQSRFPPYSPLLP [YDR103W 267-280] | 7.5
TKKRKLGPKAPNPL [YOR004W 192-205] | 37.3

Target: T3, Myo5 SH3 (MYO5_YEAST), Q04439
T3 chain: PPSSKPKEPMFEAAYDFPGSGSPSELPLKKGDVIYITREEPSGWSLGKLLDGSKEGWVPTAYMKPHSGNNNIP
Test: SPOT array

Binder | normalised SPOT signal, Boehringer light units (BLU); mean over the file's lines of this peptide
TMKNKPKPTPPSPP [YPR171W 298-311] | 910
TLKKKKTPKKPIAA [YKR084C 77-90] | 535
TNSVKATPVPPTLA [YLR337C 365-378] | 168
TKAKKEKPKPPKPI [YMR044W 280-293] | 158
TNGPRYSPQNPRPF [YMR124W 350-363] | 158
TQMKRLKPVSPGLR [YEL050C 91-104] | 1450
TKTDKSYPMSPVDA [YOR208W 444-457] | 150
TLNDRQIPLSPDQM [YAL026C 387-400] | 73.6
TKRQRGEPSEPQQD [YGR241C 267-280] | 27.7
TLDEKESPSVPPTV [YKL148C 624-637] | 212
TKFTKPKPKQPVLP [YLR439W 17-30] | 445
TLDEKNLPRLPTPF [YKR055W 36-49] | 205
TPQSRFPPYSPLLP [YDR103W 267-280] | 443
TKKRKLGPKAPNPL [YOR004W 192-205] | 694

Target: T4, Rvs167 SH3 (RV167_YEAST), P39743
T4 chain: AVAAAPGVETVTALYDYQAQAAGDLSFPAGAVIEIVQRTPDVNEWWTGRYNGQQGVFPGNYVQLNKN
Test: SPOT array

Binder | normalised SPOT signal, Boehringer light units (BLU); mean over the file's lines of this peptide
TMKNKPKPTPPSPP [YPR171W 298-311] | 48
TLKKKKTPKKPIAA [YKR084C 77-90] | 30.6
TNSVKATPVPPTLA [YLR337C 365-378] | 34.8
TKAKKEKPKPPKPI [YMR044W 280-293] | 32.6
TNGPRYSPQNPRPF [YMR124W 350-363] | 85.3
TQMKRLKPVSPGLR [YEL050C 91-104] | 1960
TKTDKSYPMSPVDA [YOR208W 444-457] | 105
TLNDRQIPLSPDQM [YAL026C 387-400] | 120
TKRQRGEPSEPQQD [YGR241C 267-280] | 189
TLDEKESPSVPPTV [YKL148C 624-637] | 85.7
TKFTKPKPKQPVLP [YLR439W 17-30] | 23.4
TLDEKNLPRLPTPF [YKR055W 36-49] | 64.3
TPQSRFPPYSPLLP [YDR103W 267-280] | 28
TKKRKLGPKAPNPL [YOR004W 192-205] | 156

What follows are binders tested against Sho1 SH3 (SHO1_YEAST), P40073 (assay: SPOT array).
Sho1 SH3 (SHO1_YEAST), P40073, sequence (P40073 295-366): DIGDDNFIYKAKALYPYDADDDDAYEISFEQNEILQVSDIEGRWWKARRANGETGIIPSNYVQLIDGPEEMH

Binder | normalised SPOT signal, Boehringer light units (BLU); mean over the file's lines of this peptide
TMKNKPKPTPPSPP [YPR171W 298-311] | 47.8
TLKKKKTPKKPIAA [YKR084C 77-90] | 64.1
TNSVKATPVPPTLA [YLR337C 365-378] | 50.1
TKAKKEKPKPPKPI [YMR044W 280-293] | 56.3
TNGPRYSPQNPRPF [YMR124W 350-363] | 7.4
TQMKRLKPVSPGLR [YEL050C 91-104] | 417
TKTDKSYPMSPVDA [YOR208W 444-457] | 36.1
TLNDRQIPLSPDQM [YAL026C 387-400] | 30.3
TKRQRGEPSEPQQD [YGR241C 267-280] | 44.1
TLDEKESPSVPPTV [YKL148C 624-637] | 32.4
TKFTKPKPKQPVLP [YLR439W 17-30] | 57.7
TLDEKNLPRLPTPF [YKR055W 36-49] | 28100
TPQSRFPPYSPLLP [YDR103W 267-280] | 34.7
TKKRKLGPKAPNPL [YOR004W 192-205] | 25

Target: T5, Yfr024 SH3 (LSB3_YEAST), P43603
T5 chain: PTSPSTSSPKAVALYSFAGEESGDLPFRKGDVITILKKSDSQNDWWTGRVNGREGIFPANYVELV
Test: SPOT array

Binder | normalised SPOT signal, Boehringer light units (BLU); mean over the file's lines of this peptide
TMKNKPKPTPPSPP [YPR171W 298-311] | 588
TLKKKKTPKKPIAA [YKR084C 77-90] | 304
TNSVKATPVPPTLA [YLR337C 365-378] | 7.5
TKAKKEKPKPPKPI [YMR044W 280-293] | 95.1
TNGPRYSPQNPRPF [YMR124W 350-363] | 470
TQMKRLKPVSPGLR [YEL050C 91-104] | 4080
TKTDKSYPMSPVDA [YOR208W 444-457] | 50.1
TLNDRQIPLSPDQM [YAL026C 387-400] | 60.2
TKRQRGEPSEPQQD [YGR241C 267-280] | 157
TLDEKESPSVPPTV [YKL148C 624-637] | 27
TKFTKPKPKQPVLP [YLR439W 17-30] | 0.2
TLDEKNLPRLPTPF [YKR055W 36-49] | 92.4
TPQSRFPPYSPLLP [YDR103W 267-280] | 33.7
TKKRKLGPKAPNPL [YOR004W 192-205] | 321

Target: T6, Yhr016c SH3 (YSC84_YEAST), P32793
T6 chain: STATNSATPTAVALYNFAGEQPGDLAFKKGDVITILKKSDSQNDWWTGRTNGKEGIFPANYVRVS
Test: SPOT array

Binder | normalised SPOT signal, Boehringer light units (BLU); mean over the file's lines of this peptide
TMKNKPKPTPPSPP [YPR171W 298-311] | 217
TLKKKKTPKKPIAA [YKR084C 77-90] | 31.6
TNSVKATPVPPTLA [YLR337C 365-378] | 23.7
TKAKKEKPKPPKPI [YMR044W 280-293] | 21.2
TNGPRYSPQNPRPF [YMR124W 350-363] | 43.5
TQMKRLKPVSPGLR [YEL050C 91-104] | 634
TKTDKSYPMSPVDA [YOR208W 444-457] | 15.5
TLNDRQIPLSPDQM [YAL026C 387-400] | 42.6
TKRQRGEPSEPQQD [YGR241C 267-280] | 43.3
TLDEKESPSVPPTV [YKL148C 624-637] | 57.9
TKFTKPKPKQPVLP [YLR439W 17-30] | 2.8
TLDEKNLPRLPTPF [YKR055W 36-49] | 64.8
TPQSRFPPYSPLLP [YDR103W 267-280] | 34.2
TKKRKLGPKAPNPL [YOR004W 192-205] | 12.6
